Results on one substance are retold here after patent US20260218128A1.

Experiment [1] concerns the target NKG2D ligands. As to the kind of experiment: flow cytometry, human primary NK cells after 24 h 1:1 co-culture with HL60 cells, NKG2D-Fc protein 5 µg/mL, anti-human IgG Fc-PE; histogram peak near 10^2; control NK only+PBS: 12.0. A general note: A flow cytometer gives signals particle by particle.
Experiment [2] addresses NKG2D ligands. As to the kind of experiment: flow cytometry, human primary NK cells after 24 h 1:1 co-culture with KG-1 cells, NKG2D-Fc protein 5 µg/mL, anti-human IgG Fc-PE; histogram peak near 10^2; control NK only+PBS: 12.0.
The target in experiment [3] is NKG2D ligands. Kind of experiment: flow cytometry, human primary NK cells after 24 h 1:1 co-culture with THP-1 cells, NKG2D-Fc protein 5 µg/mL, anti-human IgG Fc-PE; histogram peak near 10^2; control NK only+PBS: 12.0.
Experiment [4] concerns the target NKG2D ligands. As to the kind of experiment: flow cytometry, human primary NK cells after 24 h 1:1 co-culture with MV4-11 cells, NKG2D-Fc protein 5 µg/mL, anti-human IgG Fc-PE; faint histogram near 10^2; control NK only+PBS: 12.0.
The target in experiment [5] is NKG2D ligands. Kind of experiment: flow cytometry, human primary NK cells after 24 h 1:1 co-culture with NKG2D-UCAR-T cells, NKG2D-Fc protein 5 µg/mL, anti-human IgG Fc-PE; histogram peak near 10^2; control NK only+PBS: 12.0.

Sequence of NKG2D-Fc protein (P26718 78-216 limits assumed): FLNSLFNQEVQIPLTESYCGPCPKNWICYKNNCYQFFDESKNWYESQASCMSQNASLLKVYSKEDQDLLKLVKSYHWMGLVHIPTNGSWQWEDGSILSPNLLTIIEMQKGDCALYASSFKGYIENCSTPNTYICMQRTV

Take “NKG2D-Fc protein (from UniProt P26718) (Fc fusion)”: the PE fluorescence statistic, name not given is 107 in experiment [1]; 99.7 in experiment [2]; 125 in experiment [3]; 124 in experiment [4]; 95 in experiment [5].
